Article PMC13464484, “Ancestral proteins trace the emergence of substrate specificity and oligomerization within bacterial DEDDy dinucleases” (Science Advances, 2026)

Columns and labels:
[1] = target: diDNase ortholog from Mycobacterium (Mycobacterium (genus only)); assay: […] (~40 to 80 uM) […], pH 7.5; […], room temperature
[2] = target: NrnC ortholog from Thermosynechococcus (Thermosynechococcus (genus only)); assay: SEC-MALS; purified protein at 1 to 2 mg/ml (~40 to 80 uM) on Superdex 200 Increase 10/300 GL in gel-filtration buffer (25 mM Hepes-NaOH, 150 mM NaCl, pH 7.5; 500 mM NaCl for ancestor A0), room temperature
[3] = target: diDNase ortholog from Nocardia (Nocardia (genus only)); assay: as above
[4] = target: NrnC ortholog from Methylobacter (Methylobacter (genus only)); assay: as above
[5] = target: diDNase ortholog from Actinomadura (Actinomadura (genus only)); assay: as above
[6] = target: Alphaproteobacterial NrnC ortholog from Sphingomonas (Sphingomonas (genus only)); assay: mass photometry; protein at 100 nM in phosphate-buffered saline, TwoMP instrument
[7] = target: the molecule itself; assay: as above

Molecule: diDNase ortholog from Mycobacterium (enzyme)
- stoichiometry N [1]: 2

Molecule: NrnC ortholog from Thermosynechococcus (enzyme)
- stoichiometry N [2]: 8

Molecule: diDNase ortholog from Nocardia (enzyme)
- stoichiometry N [3]: 2

Molecule: NrnC ortholog from Methylobacter (enzyme)
- stoichiometry N [4]: 8

Molecule: diDNase ortholog from Actinomadura (enzyme)
- stoichiometry N [5]: 2

Molecule: Alphaproteobacterial NrnC ortholog from Sphingomonas (enzyme)
- percent dimers [6]: > 85%
- stoichiometry N [6]: 2

B1: Alphaproteobacterial NrnC ortholog from Caulobacter (enzyme)
chain: MANFVHEGDLPDGVFADAEIIAIDSETMGLRLRRDPLCVVQLSAGDGDAHVVRLSRPDYDCPNLKALLTNPKVLKLFHFGRFDIAMFELHLGVVTAPVYCTKIASKLARTYTDRHGLKDVTRELLGVELSKVQQSSDWGAPSLSVDQVAYAASDVLHLHGLRLKLNAMLEREGRMALAQHAFDYLPHRASLDLAGWEEMDIFAHS
- stoichiometry N [7]: 2
